Assay [1] concerns the target T1, Recombinant human DLL4-Fc (human, UniProt Q9NR61 27-522, limits assumed).
T1 construct: also called hDLL4; hDLL4-Fc; not shown: Fc portion
Briefly: SPR (Biacore 2000), human DLL4-Fc on CM5 chip; ratio of KDs against 219R45-MB-21M18. As to the method:
(§1) The KDs of parental antibodies anti-VEGF 219R45 (IgG format), anti-DLL4 21R79 (IgG format), anti-DLL4 21M18 (IgG format) and bispecific antibodies 219R45-MB-21M18 and 219R45-MB-21R79 were determined using a Biacore 2000 system from Biacore LifeSciences (GE Healthcare). Recombinant human DLL4-Fc or mouse DLL4-Fc proteins were immobilized on CM5 carboxyl chips using standard amine-based chemistry (NHS/EDC) and blocked with ethanolamine Recombinant human VEGF₁₆₅ or mouse VEGF₁₆₅ were biotinylated and immobilized on streptavidin chips. The antibodies were serially diluted 2-fold from 100 nM to 0.78 nM in HBS-P (0.01M HEPES pH7.4, 0.15M NaCl, 0.005% v/v Polysorbate 20). For each antibody, all 8 dilutions were sequentially injected over a specific chip. Kinetic data were collected over time and were fit using the simultaneous global fit equation to yield affinity constants (KD values) for each bispecific antibody.

Assay [2] addresses T1, Recombinant human DLL4-Fc. Briefly: SPR (Biacore 2000), human DLL4-Fc amine-coupled on CM5 chip, antibody as analyte. The method, then: as §1
Assay [3] concerns the target T1, Recombinant human DLL4-Fc. The description is as above. As to the method:
as §1
Several additional anti-DLL4 antibodies were identified that had binding affinities intermediate to the KDs of 21M18 and 21R79. Two of these anti-DLL4 antibodies were used to produce anti-VEGF/anti-DLL4 bispecific antibodies 219R45-MB-21R75 and 219R45-MB-21R83. Using the Biacore 2000 system as described above, the KDs of the bispecific antibodies 219R45-MB-21R75 and 219R45-MB-21R83 to human DLL4 were determined.
This is another data set of the same source.

Assay [4] concerns the target T2, Recombinant human VEGF165 (human, UniProt P15692-4 27-191).
T2 construct: also called hVEGF; hVEGF165
Description: SPR (Biacore 2000), biotinylated human VEGF165 on streptavidin chip, antibody as analyte. As to the method: as §1

The target in assay [5] is T3, Recombinant mouse VEGF165 (mouse, UniProt Q00731-2 27-190).
T3 construct: also called mVEGF
T3 sequence (looked up): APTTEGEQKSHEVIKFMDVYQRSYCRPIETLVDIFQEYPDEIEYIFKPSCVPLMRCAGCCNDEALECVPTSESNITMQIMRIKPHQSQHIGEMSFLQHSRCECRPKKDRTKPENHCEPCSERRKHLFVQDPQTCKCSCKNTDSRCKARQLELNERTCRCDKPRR
Description: SPR (Biacore 2000), biotinylated mouse VEGF165 on streptavidin chip, antibody as analyte. As to the method: as §1

Assay [6] has as its target T4, biotin-DLL4-hFc (UniProt Q9NR61 27-522, limits assumed, biotinylated (site not stated)).
T4 construct: not shown: human Fc (hFc)
Description: Bispecific bridging ELISA (VEGF-coated plate, biotin-DLL4-hFc detection); ratio against 219R45-MB-21M18. The method, then: (§2) VEGF (ATGEN, South Korea) was coated onto Nunc maxisorb plates at 2 ug/ml (100 μl/well) and incubated overnight at 2-8° C. Bispecific antibodies 219R45-MB-21M18, 219R45-MB-21R79, 219R45-MB-21R75, and 219R45-MB-21R83 were diluted in blocking buffer (lx PBS, 0.1% gelatin, 0.1% Polysorbate-20, pH 7.4) containing 2 μg/ml biotin-DLL4-hFc. The antibodies were serially diluted 3-fold from 500 ng/ml to 0.008 ng/ml. The antibody samples were incubated for 2 hours in blocking buffer containing the biotin-DLL4-hFc. After incubation, the antibody samples were transferred to the VEGF-coated assay plate (100 ul/well) and incubated for 2 hours. Streptavidin-HRP (Jackson ImmunoResearch, West Grove, Pa.) was added to each well and incubated for 1 hr. TMB substrate was added to the wells with a 10 minute color development and the reaction was stopped with 2M sulfuric acid. Absorbance was read at 450-650 nm and the data analyzed using the 4-parameter fit within the Softmax Pro analysis program (Molecular Devices, Sunnyvale, Calif.).

Assay [7] addresses T4, biotin-DLL4-hFc. Description: bispecific sandwich ELISA: antibody pre-incubated with 2 ug/ml biotin-DLL4-hFc, captured on VEGF-coated plate, detected with streptavidin-HRP. As to the method: FIG. 7. Bispecific antibody ELISA. Bispecific antibodies 219R45-MB-21M18, 219R45-MB-21R79, 219R45-MB-21R75, and 219R45-MB-21R83 were diluted in blocking buffer (lx PBS, 0.1% gelatin, 0.1% Polysorbate-20, pH 7.4) containing 2 μg/ml biotin-DLL4-hFc. The antibodies were serially diluted 3-fold from 500 ng/ml to 0.008 ng/ml. The antibody samples were incubated for 2 hours in blocking buffer containing the biotin-DLL4-hFc. After incubation, the antibody samples were transferred to a VEGF-coated assay plate (100 ul/well) and incubated for 2 hours. Streptavidin-HRP was added to each well and incubated for 1 hr. TMB substrate was added to the wells with a 10 minute color development and the reaction was stopped with 2M sulfuric acid. Absorbance was read at 450-650 nm and the data analyzed using the 4-parameter fit within the Softmax Pro analysis program.
as §2

Assay [8] has as its target T4, biotin-DLL4-hFc. Briefly: Bispecific bridging ELISA: antibody pre-incubated with biotin-DLL4-hFc, captured on VEGF (ATGEN)-coated plate, streptavidin-HRP; potency relative to a reference anti-VEGF/anti-DLL4 bispecific antibody. The method, then: as §2

Data on one molecule can be found in patent publication US20180305449A1 (ONCOMED PHARMACEUTICALS, published 2018).

Where two headings read alike, the source gives them in different places.

T4 sequence (Q9NR61 27-522 limits assumed): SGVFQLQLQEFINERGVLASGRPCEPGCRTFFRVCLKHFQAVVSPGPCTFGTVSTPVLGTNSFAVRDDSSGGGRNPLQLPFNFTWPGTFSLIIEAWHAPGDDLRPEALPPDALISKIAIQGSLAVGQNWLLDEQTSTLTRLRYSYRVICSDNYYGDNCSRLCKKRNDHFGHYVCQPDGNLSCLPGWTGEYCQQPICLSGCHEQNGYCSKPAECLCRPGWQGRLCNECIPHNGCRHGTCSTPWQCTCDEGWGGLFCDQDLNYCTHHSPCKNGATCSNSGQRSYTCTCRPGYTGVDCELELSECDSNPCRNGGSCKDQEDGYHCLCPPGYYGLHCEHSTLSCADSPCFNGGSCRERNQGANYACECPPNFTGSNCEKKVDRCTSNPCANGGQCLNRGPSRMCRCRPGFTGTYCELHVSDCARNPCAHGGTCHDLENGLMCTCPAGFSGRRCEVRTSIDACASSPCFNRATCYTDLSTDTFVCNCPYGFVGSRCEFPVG
T1 sequence (Q9NR61 27-522 limits assumed): as above

B1: anti-VEGF/anti-DLL4 bispecific antibody 219R45-MB-21R79 (bispecific antibody, human IgG2)
heavy 1: QVQLVQSGAEVKKPGASVKVSCKASGYTFTNYWMHWVRQAPGQGLEWMGDINPSNGRTSYKEKFKRRVTLSVDKSSSTAYMELSSLRSEDTAVYFCTIHYDDKYYPLMDYWGQGTLVTVSSASTKGPSVFPLAPCSRSTSESTAALGCLVKDYFPEPVTVSWNSGALTSGVHTFPAVLQSSGLYSLSSVVTVPSSNFGTQTYTCNVDHKPSNTKVDKTVERKCCVECPPCPAPPVAGPSVFLFPPKPKDTLMISRTPEVTCVVVDVSHEDPEVQFNWYVDGVEVHNAKTKPREEQFNSTFRVVSVLTVVHQDWLNGKEYKCKVSNKGLPAPIEKTISKTKGQPREPQVYTLPPSREKMTKNQVSLTCLVKGFYPSDIAVEWESNGQPENNYKTTPPMLKSDGSFFLYSKLTVDKSRWQQGNVFSCSVMHEALHNHYTQKSLSLSPGK
heavy 2: QVQLVQSGAEVKKPGASVKISCKASGYSFTAYYIHWVKQAPGQGLEWIGYIANYNRATNYNQKFKGRVTFTTDTSTSTAYMELRSLRSDDTAVYYCARDYDYDVGMDYWGQGTLVTVSSASTKGPSVFPLAPCSRSTSESTAALGCLVKDYFPEPVTVSWNSGALTSGVHTFPAVLQSSGLYSLSSVVTVPSSNFGTQTYTCNVDHKPSNTKVDKTVERKCCVECPPCPAPPVAGPSVFLFPPKPKDTLMISRTPEVTCVVVDVSHEDPEVQFNWYVDGVEVHNAKTKPREEQFNSTFRVVSVLTVVHQDWLNGKEYKCKVSNKGLPAPIEKTISKTKGQPREPQVYTLPPSREEMTKNQVSLTCLVEGFYPSDIAVEWESNGQPENNYKTTPPMLDSDGSFFLYSELTVDKSRWQQGNVFSCSVMHEALHNHYTQKSLSLSPGK
light: DIVMTQSPDSLAVSLGERATISCRASESVDNYGISFMKWFQQKPGQPPKLLIYAASNQGSGVPDRFSGSGSGTDFTLTISSLQAEDVAVYYCQQSKEVPWTFGGGTKVEIKRTVAAPSVIFPPSDEQLKSGTASVVCLLNNFYPREAKVQWKVDNALQSGNSQESVTEQDSKDSTYSLSSTLTLSKADYEKHKVYACEVTHQGLSSPVTKSFNRGEC
notes: Monovalent/bispecific IgG2 heterodimer with charge-modified CH3 domains and two identical light chains
Turning to B1, the “fold stronger binding than 219R45-MB-21M18” value in assay [1] is approximately 30 fold. Moreover, the Kd was 0.53 nM in assay [2], 0.53 nM in assay [3], 0.68 nM in assay [4] and 12.5 nM in assay [5]. Moreover, in assay [6], the “fold more potent than 219R45-MB-21M18” value is approximately 7 fold. Moreover, the “EC50 (read off the curve)” value in assay [7] was approximately 0.6 ng/mL. For the same molecule, the “Relative Potency (%)” value in assay [8] was 501%.
